In paper PMC2873289, “A Helix Replacement Mechanism Directs Metavinculin Functions” (PLoS ONE, 2010):
Substitutions are numbered along the chain they refer to. Names and notes keep the numbering of the source. Each block holds one binder with its values, some of them ahead of it.

Key:
[1] = target: T1, GST tagged vinculin tail domain (GST-Vt; residues 879–1,066) (human, UniProt P18206-2 879-1066); test: pull-down; GST-Vt on GST-Sepharose beads, with or without PIP2; tail domains (MVt, MVt-ΔH1) or Vh2–Vh3 as negative control; SDS-PAGE and Western blot with HRP-conjugated αHis or αGST antibodies; conditions: both partners purified
T1 construct: human vinculin tail domain, residues 879-1,066 of vinculin (1,066-residue isoform), cloned in pGEX-4T-1; source: E. coli BL21-DE3, purified (GSTrap FF, Superdex 75)
T1 sequence (looked up): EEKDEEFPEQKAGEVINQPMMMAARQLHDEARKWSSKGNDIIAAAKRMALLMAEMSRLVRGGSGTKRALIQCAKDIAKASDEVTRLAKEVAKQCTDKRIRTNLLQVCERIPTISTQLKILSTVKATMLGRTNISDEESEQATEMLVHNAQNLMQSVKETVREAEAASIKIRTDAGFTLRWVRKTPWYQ

[2] = target: T2, head domain of vinculin (VH; residues 1–843) (human, UniProt P18206 1-843); test: native gel or EMSA; reciprocal tail displacement: competing tail domains titrated into preformed VH:tail complexes at 2- and 10-fold molar excess; details in Methods S1; conditions: both partners purified
T2 construct: human vinculin head domain, residues 1-843 (the same in vinculin and metavinculin)
T2 sequence (looked up): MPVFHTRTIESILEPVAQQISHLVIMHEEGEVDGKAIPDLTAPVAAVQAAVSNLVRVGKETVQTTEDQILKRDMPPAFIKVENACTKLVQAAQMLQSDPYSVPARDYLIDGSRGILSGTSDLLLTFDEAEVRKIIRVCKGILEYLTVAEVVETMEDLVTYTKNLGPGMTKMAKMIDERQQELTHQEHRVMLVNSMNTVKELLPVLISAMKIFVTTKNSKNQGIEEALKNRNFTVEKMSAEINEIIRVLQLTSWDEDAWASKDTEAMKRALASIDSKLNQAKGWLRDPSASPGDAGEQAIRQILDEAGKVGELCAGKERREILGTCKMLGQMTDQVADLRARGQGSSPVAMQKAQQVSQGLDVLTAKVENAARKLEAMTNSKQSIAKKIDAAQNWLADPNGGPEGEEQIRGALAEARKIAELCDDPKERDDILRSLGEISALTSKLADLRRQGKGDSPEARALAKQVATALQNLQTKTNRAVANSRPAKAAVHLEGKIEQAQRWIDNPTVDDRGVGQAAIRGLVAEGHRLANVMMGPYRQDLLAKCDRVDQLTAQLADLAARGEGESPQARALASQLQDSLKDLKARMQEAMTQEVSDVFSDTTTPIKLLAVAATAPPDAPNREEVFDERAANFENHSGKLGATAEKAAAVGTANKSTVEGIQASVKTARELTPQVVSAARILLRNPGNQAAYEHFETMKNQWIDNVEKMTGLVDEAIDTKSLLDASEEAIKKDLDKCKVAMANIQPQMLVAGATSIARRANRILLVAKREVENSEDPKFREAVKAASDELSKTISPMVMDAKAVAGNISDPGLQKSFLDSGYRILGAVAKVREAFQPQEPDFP

[3] = target: the molecule itself; test: SEC; Hiload 26/60 Superdex 200 calibrated with molecular weight markers; without PIP2

B3: metavinculin-ΔH1′ (lacking residues 963–983) (natural protein, human, UniProt P18206 1-1134, looked up)
chain: MPVFHTRTIESILEPVAQQISHLVIMHEEGEVDGKAIPDLTAPVAAVQAAVSNLVRVGKETVQTTEDQILKRDMPPAFIKVENACTKLVQAAQMLQSDPYSVPARDYLIDGSRGILSGTSDLLLTFDEAEVRKIIRVCKGILEYLTVAEVVETMEDLVTYTKNLGPGMTKMAKMIDERQQELTHQEHRVMLVNSMNTVKELLPVLISAMKIFVTTKNSKNQGIEEALKNRNFTVEKMSAEINEIIRVLQLTSWDEDAWASKDTEAMKRALASIDSKLNQAKGWLRDPSASPGDAGEQAIRQILDEAGKVGELCAGKERREILGTCKMLGQMTDQVADLRARGQGSSPVAMQKAQQVSQGLDVLTAKVENAARKLEAMTNSKQSIAKKIDAAQNWLADPNGGPEGEEQIRGALAEARKIAELCDDPKERDDILRSLGEISALTSKLADLRRQGKGDSPEARALAKQVATALQNLQTKTNRAVANSRPAKAAVHLEGKIEQAQRWIDNPTVDDRGVGQAAIRGLVAEGHRLANVMMGPYRQDLLAKCDRVDQLTAQLADLAARGEGESPQARALASQLQDSLKDLKARMQEAMTQEVSDVFSDTTTPIKLLAVAATAPPDAPNREEVFDERAANFENHSGKLGATAEKAAAVGTANKSTVEGIQASVKTARELTPQVVSAARILLRNPGNQAAYEHFETMKNQWIDNVEKMTGLVDEAIDTKSLLDASEEAIKKDLDKCKVAMANIQPQMLVAGATSIARRANRILLVAKREVENSEDPKFREAVKAASDELSKTISPMVMDAKAVAGNISDPGLQKSFLDSGYRILGAVAKVREAFQPQEPDFPPPPPDLEQLRLTDELAPPKPPLPEGEVPPPRPPPPEEKDEEFPEQKAGEVINQPMMMAARQLHDEARKWSSKPGIPAAEVGIGVVAEADAADAAGFPVPPDMEDDYEPELLLMPSNQPVGNDIIAAAKRMALLMAEMSRLVRGGSGTKRALIQCAKDIAKASDEVTRLAKEVAKQCTDKRIRTNLLQVCERIPTISTQLKILSTVKATMLGRTNISDEESEQATEMLVHNAQNLMQSVKETVREAEAASIKIRTDAGFTLRWVRKTPWYQ
notes: human metavinculin, full length (1-1,134) lacking residues 963-983 (α-helix H1′): 1-962 joined to 984-1,134; also called MV-ΔH1′; source: E. coli BL21-DE3, purified (as full-length metavinculin); not shown: His8, N-terminal, kept
stoichiometry N [3]: 2

B4: metavinculin-ΔH1ΔH1′ (lacking residues 895–915 and 963–983) (natural protein, human, UniProt P18206 1-1134, looked up)
chain: MPVFHTRTIESILEPVAQQISHLVIMHEEGEVDGKAIPDLTAPVAAVQAAVSNLVRVGKETVQTTEDQILKRDMPPAFIKVENACTKLVQAAQMLQSDPYSVPARDYLIDGSRGILSGTSDLLLTFDEAEVRKIIRVCKGILEYLTVAEVVETMEDLVTYTKNLGPGMTKMAKMIDERQQELTHQEHRVMLVNSMNTVKELLPVLISAMKIFVTTKNSKNQGIEEALKNRNFTVEKMSAEINEIIRVLQLTSWDEDAWASKDTEAMKRALASIDSKLNQAKGWLRDPSASPGDAGEQAIRQILDEAGKVGELCAGKERREILGTCKMLGQMTDQVADLRARGQGSSPVAMQKAQQVSQGLDVLTAKVENAARKLEAMTNSKQSIAKKIDAAQNWLADPNGGPEGEEQIRGALAEARKIAELCDDPKERDDILRSLGEISALTSKLADLRRQGKGDSPEARALAKQVATALQNLQTKTNRAVANSRPAKAAVHLEGKIEQAQRWIDNPTVDDRGVGQAAIRGLVAEGHRLANVMMGPYRQDLLAKCDRVDQLTAQLADLAARGEGESPQARALASQLQDSLKDLKARMQEAMTQEVSDVFSDTTTPIKLLAVAATAPPDAPNREEVFDERAANFENHSGKLGATAEKAAAVGTANKSTVEGIQASVKTARELTPQVVSAARILLRNPGNQAAYEHFETMKNQWIDNVEKMTGLVDEAIDTKSLLDASEEAIKKDLDKCKVAMANIQPQMLVAGATSIARRANRILLVAKREVENSEDPKFREAVKAASDELSKTISPMVMDAKAVAGNISDPGLQKSFLDSGYRILGAVAKVREAFQPQEPDFPPPPPDLEQLRLTDELAPPKPPLPEGEVPPPRPPPPEEKDEEFPEQKAGEVIPGIPAAEVGIGVVAEADAADAAGFPVPPDMEDDYEPELLLMPSNQPVGNDIIAAAKRMALLMAEMSRLVRGGSGTKRALIQCAKDIAKASDEVTRLAKEVAKQCTDKRIRTNLLQVCERIPTISTQLKILSTVKATMLGRTNISDEESEQATEMLVHNAQNLMQSVKETVREAEAASIKIRTDAGFTLRWVRKTPWYQ
notes: human metavinculin, full length (1-1,134) lacking residues 895-915 (H1) and 963-983 (H1′); source: E. coli BL21-DE3, purified (as full-length metavinculin); not shown: His8, N-terminal, kept
stoichiometry N [3]: 2

B5: metavinculin tail domain (MVt; residues 879–1,134) (domain or fragment, human, UniProt P18206 879-1134, looked up)
chain: EEKDEEFPEQKAGEVINQPMMMAARQLHDEARKWSSKPGIPAAEVGIGVVAEADAADAAGFPVPPDMEDDYEPELLLMPSNQPVNQPILAAAQSLHREATKWSSKGNDIIAAAKRMALLMAEMSRLVRGGSGTKRALIQCAKDIAKASDEVTRLAKEVAKQCTDKRIRTNLLQVCERIPTISTQLKILSTVKATMLGRTNISDEESEQATEMLVHNAQNLMQSVKETVREAEAASIKIRTDAGFTLRWVRKTPWYQ
notes: human metavinculin (1,134 residues) tail domain, residues 879-1,134; Tag-cleaved form as told in the purification methods; the His-detected form of the pull-down is m16; not shown: His6, N-terminal, cleaved
binding result [2]: binds

More lines, now with the values ahead:

binding result [1]: binds
B1: MVt-ΔH1 (residues 959–1,130) as detected by His-tag Western blot in the GST-Vt pull-down (domain or fragment, human, UniProt P18206 959-1130, looked up)
chain: NQPVNQPILAAAQSLHREATKWSSKGNDIIAAAKRMALLMAEMSRLVRGGSGTKRALIQCAKDIAKASDEVTRLAKEVAKQCTDKRIRTNLLQVCERIPTISTQLKILSTVKATMLGRTNISDEESEQATEMLVHNAQNLMQSVKETVREAEAASIKIRTDAGFTLRWVRKT
notes: human metavinculin (1,134 residues), residues 959-1,130; Same construct as m3; source: E. coli, auto-induction media, purified; not shown: His8, N-terminal, kept

binding result [2]: binds
B2: MVt-ΔH1 (residues 959–1,130) (domain or fragment, human, UniProt P18206 959-1130, looked up)
chain: B1 chain
notes: human metavinculin (1,134 residues), residues 959-1,130 (five-helix bundle H1′, H2-H5); The His-detected form of the pull-down is m17; also called MVt five-helix bundle (α-helices H1′, H2–H5); not shown: His8, N-terminal, cleaved

binding result [2]: binds
B6: MVt-R975W (residues 879–1134) (domain or fragment, human, UniProt P18206 879-1134, looked up)
chain: B5 chain with R97W
notes: human metavinculin tail domain, residues 879-1,134, with the cardiomyopathy-associated mutation Arg975Trp; also called MVt-Arg975Trp; not shown: His6, N-terminal, cleaved
